Test results: US20240034813A1 (Janssen / Centocor, published 2024)

Tests used:
[1] = target: T1, recombinant human EGFR/ErbB1/HER1 with C-terminal His tag, Cy5-labeled (human, UniProt P00533 25-645, Cy5 label (reacted with Cy5 Mono NHS Ester; sites not stated)); test: competitive TR-FRET (Eu-amivantamab/Cy5-EGFR), EC50 ratio vs Reference Material; Ex. 11 drug product, 12 months at 5 C
T1 construct: Commercial protein; also called Cy5-EGFR; Cy5-labeled EGFR antigen; not shown: C-terminal His tag
Description: (§1) In this procedure, varying concentrations of unlabeled bispecific EGFR-cMet antibody sample compete with donor fluorophore (Europium (Eu) chelate) labeled bispecific EGFR-cMet antibody for binding to an acceptor fluorophore (Cy5)-labeled EGFR antigen. Excitation of the donor fluorophore results in a transfer of energy to the bound acceptor fluorophore (FRET process). The resultant FRET is detected by emission of light at 665 nm using a microplate reader capable of measuring time-resolved fluorescence. Sample dose response curves are compared to the RM.
(§2) EGFR Binding Materials and Methods. Certified commercial EGFR, a recombinant human EGFR/ErbB1/HER1 with C-terminal His tag is reacted with certified commercial Cy5 Mono NHS Ester to produce Cy5-labeled EGFR. Validated bispecific EGFR-cMet antibody is reacted with certified commercial Europium (Eu) chelate to produce Eu-labeled bispecific EGFR-cMet antibody. […] Fluorescence is then measured by spectrophotometry at 665 nm, plotted against antibody concentration and analyzed by a four-parameter logistic model. The antibody concentration required to obtain half of the maximum fluorescence response (EC50) is determined for RM, assay control and samples. The potencies of assay control and samples are calculated based on the ratio of the sample (or control) and RM EC50 values and reported as a percentage activity relative to the RM.

[2] = target: T2, recombinant cMet/HGFR with c-terminal His-tag, Cy5-labeled (UniProt P08581 25-932, limits assumed, Cy5 label (reacted with Cy5 Mono NHS Ester; sites not stated)); test: competitive TR-FRET (Eu-amivantamab/Cy5-c-MET), EC50 ratio vs Reference Material; Ex. 11 drug product, 3 months at 5 C
T2 construct: Commercial protein; also called Cy5-c-MET; Cy5-labeled c-MET antigen; not shown: C-terminal His-tag
Description: (§3) In this procedure, varying concentrations of unlabeled bispecific EGFR-cMet antibody sample compete with donor fluorophore (Europium (Eu) chelate) labeled bispecific EGFR-cMet antibody for binding to an acceptor fluorophore (Cy5)-labeled c-MET antigen. Excitation of the donor fluorophore results in a transfer of energy to the bound acceptor fluorophore (FRET process). The resultant FRET is detected by emission of light at 665 nm using a microplate reader capable of measuring time-resolved fluorescence. Sample dose response curves are compared to the Reference Material (RM).
as §2, with “c-MET Binding” for “EGFR Binding”, “commercial cMet,” for “commercial EGFR,”, “recombinant cMet/HGFR” for “recombinant human EGFR/ErbB1/HER1”, “with c-terminal His-tag” for “with C-terminal His tag”, “Cy5-labeled c-MET.” for “Cy5-labeled EGFR.”, “produce Eu labeled” for “produce Eu-labeled”

[3] = target: T2, recombinant cMet/HGFR with c-terminal …; test: competitive TR-FRET (Eu-amivantamab/Cy5-c-MET), EC50 ratio vs Reference Material; Ex. 2 Formulation 3 (acetate), T0, 25 C table
Description: as §3
as §2, with “c-MET Binding” for “EGFR Binding”, “commercial cMet,” for “commercial EGFR,”, “recombinant cMet/HGFR” for “recombinant human EGFR/ErbB1/HER1”, “with c-terminal His-tag” for “with C-terminal His tag”, “Cy5-labeled c-MET.” for “Cy5-labeled EGFR.”, “produce Eu labeled” for “produce Eu-labeled”

[4] = target: T1, recombinant human EGFR/ErbB1/HER1 with …; test: competitive TR-FRET (Eu-amivantamab/Cy5-EGFR), EC50 ratio vs Reference Material; Ex. 12 drug product with rHuPH20, 6 months at 5 C
Description: as §1, §2

[5] = target: T1, recombinant human EGFR/ErbB1/HER1 with …; test: competitive TR-FRET (Eu-amivantamab/Cy5-EGFR), EC50 ratio vs Reference Material; Ex. 12 drug product with rHuPH20, 6 months at 25 C
Description: as §1, §2

[6] = target: T2, recombinant cMet/HGFR with c-terminal …; test: competitive TR-FRET (Eu-amivantamab/Cy5-c-MET), EC50 ratio vs Reference Material; Ex. 2 Formulation 1 (10 mM histidine), T0, 25 C table
Description: as §3
as §2, with “c-MET Binding” for “EGFR Binding”, “commercial cMet,” for “commercial EGFR,”, “recombinant cMet/HGFR” for “recombinant human EGFR/ErbB1/HER1”, “with c-terminal His-tag” for “with C-terminal His tag”, “Cy5-labeled c-MET.” for “Cy5-labeled EGFR.”, “produce Eu labeled” for “produce Eu-labeled”

[7] = target: T2, recombinant cMet/HGFR with c-terminal …; test: competitive TR-FRET (Eu-amivantamab/Cy5-c-MET), EC50 ratio vs Reference Material; Ex. 12 drug product with rHuPH20, 0 months, 25 C table
Description: as §3
as §2, with “c-MET Binding” for “EGFR Binding”, “commercial cMet,” for “commercial EGFR,”, “recombinant cMet/HGFR” for “recombinant human EGFR/ErbB1/HER1”, “with c-terminal His-tag” for “with C-terminal His tag”, “Cy5-labeled c-MET.” for “Cy5-labeled EGFR.”, “produce Eu labeled” for “produce Eu-labeled”

[8] = target: T2, recombinant cMet/HGFR with c-terminal …; test: competitive TR-FRET (Eu-amivantamab/Cy5-c-MET), EC50 ratio vs Reference Material; Ex. 12 drug product with rHuPH20, 0 months, 40 C table
Description: as §3
as §2, with “c-MET Binding” for “EGFR Binding”, “commercial cMet,” for “commercial EGFR,”, “recombinant cMet/HGFR” for “recombinant human EGFR/ErbB1/HER1”, “with c-terminal His-tag” for “with C-terminal His tag”, “Cy5-labeled c-MET.” for “Cy5-labeled EGFR.”, “produce Eu labeled” for “produce Eu-labeled”

B1: amivantamab (bispecific antibody, human IgG1, kappa)
heavy 1: not shown
light 1: not shown
heavy 2: not shown
light 2: DIQMTQSPSSVSASVGDRVTITCRASQGISNWLAWFQHKPGKAPKLLIYAASSLLSGVPSRFSGSGSGTDFTLTISSLQPEDFATYYCQQANSFPITFGQGTRLEIKRTVAAPSVFIFPPSDEQLKSGTASVVCLLNNFYPREAKVQWKVDNALQSGNSQESVTEQDSKDSTYSLSSTLTLSKADYEKHKVYACEVTHQGLSSPVTKSFNRGEC
notes: The samples tested were high concentration (160 mg/mL) formulations, fresh or stored or stressed; also called JNJ-61186372; bispecific EGFR-cMet antibody
EGFR Binding activity relative to Reference Material (%) [1]: 86% | cMET Binding activity relative to Reference Material (%) [2]: 97% | cMET Binding % activity relative to RM [3]: 94% | EGFR Binding activity relative to Reference Material (%) [4]: 89% | EGFR Binding activity relative to Reference Material (%) [5]: 54% | cMET Binding % activity relative to RM [6]: 87% | cMET Binding activity relative to Reference Material (%) [7]: 91% | cMET Binding activity relative to Reference Material (%) [8]: 91%
